Source: patent CN112961245A (CHONGQING PREC BIOTECH CO LTD, dated 2021)

T1: CD96-His (human, UniProt P40200-2 22-503, limits assumed)
T1 construct: not shown: His tag
T1 sequence (looked up): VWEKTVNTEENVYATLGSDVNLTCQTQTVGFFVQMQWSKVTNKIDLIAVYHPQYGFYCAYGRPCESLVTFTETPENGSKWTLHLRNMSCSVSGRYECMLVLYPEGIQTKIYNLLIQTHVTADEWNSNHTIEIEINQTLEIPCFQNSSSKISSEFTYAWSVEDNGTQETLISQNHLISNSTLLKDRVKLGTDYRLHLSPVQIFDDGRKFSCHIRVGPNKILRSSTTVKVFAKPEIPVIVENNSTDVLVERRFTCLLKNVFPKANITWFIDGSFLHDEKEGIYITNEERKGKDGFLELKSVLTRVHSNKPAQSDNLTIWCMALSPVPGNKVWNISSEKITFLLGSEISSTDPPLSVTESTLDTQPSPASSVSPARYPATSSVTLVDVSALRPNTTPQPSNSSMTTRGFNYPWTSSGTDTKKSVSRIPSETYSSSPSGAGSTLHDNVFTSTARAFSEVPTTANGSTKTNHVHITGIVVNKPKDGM

T2: CD96 (on 293T-CD96 cells and on T cells) (human) (UniProt P40200)
T2 sequence (looked up): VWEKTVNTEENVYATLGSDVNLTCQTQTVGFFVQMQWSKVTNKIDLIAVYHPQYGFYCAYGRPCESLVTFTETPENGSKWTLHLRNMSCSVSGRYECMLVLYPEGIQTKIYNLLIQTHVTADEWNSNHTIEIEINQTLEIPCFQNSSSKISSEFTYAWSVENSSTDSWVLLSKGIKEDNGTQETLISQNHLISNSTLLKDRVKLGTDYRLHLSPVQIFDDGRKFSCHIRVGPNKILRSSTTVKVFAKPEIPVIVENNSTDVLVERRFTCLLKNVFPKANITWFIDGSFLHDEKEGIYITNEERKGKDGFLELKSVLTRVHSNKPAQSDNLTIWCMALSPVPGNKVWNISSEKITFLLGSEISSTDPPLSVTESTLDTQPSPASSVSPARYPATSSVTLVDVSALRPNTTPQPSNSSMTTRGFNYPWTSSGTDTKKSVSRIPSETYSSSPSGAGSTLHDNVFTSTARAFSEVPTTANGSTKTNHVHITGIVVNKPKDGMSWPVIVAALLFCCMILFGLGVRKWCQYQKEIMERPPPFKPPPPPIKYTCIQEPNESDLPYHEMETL

B1: CD96 ScFv-Fc (scFv)
chain: DVVMTQTPLTLSVTIGQPASISCKSSQSLLDSDGKTYLNWLLQRPGESPKLLIYLVSKLDSGVPDRFTGSGSGTDFTLKISRVEAEDLGVYYCLQATHFPWTFGGGTKLEIKGSTSGSGKPGSGEGSTKGQVTLKESGPGILQPSQTLSLTCSFSGFSLDTFGMGVGWIRQSSGKGLEWLAHIWWDDDKFYNPALKSRLTVSKDTSKNQVFLKIANVDTADTATYYCAHYYGSLSFDVWGTGTTVTVSS
notes: Monospecific scFv-Fc control ('单抗'); also called CD96单抗; CD96抗体; not shown: Fc of the monospecific ScFv-Fc
B2: CD96 ScFv-Holes-PD1 ScFv-Knobes (bispecific antibody, human IgG4 S228P)
chain 1: DVVMTQTPLTLSVTIGQPASISCKSSQSLLDSDGKTYLNWLLQRPGESPKLLIYLVSKLDSGVPDRFTGSGSGTDFTLKISRVEAEDLGVYYCLQATHFPWTFGGGTKLEIKGSTSGSGKPGSGEGSTKGQVTLKESGPGILQPSQTLSLTCSFSGFSLDTFGMGVGWIRQSSGKGLEWLAHIWWDDDKFYNPALKSRLTVSKDTSKNQVFLKIANVDTADTATYYCAHYYGSLSFDVWGTGTTVTVSSESKYGPPCPPCPAPEFLGGPSVFLFPPKPKDTLMISRTPEVTCVVVDVSQEDPEVQFNWYVDGVEVHNAKTKPREEQFNSTYRVVSVLTVLHQDWLNGKEYKCKVSNKGLPSSIEKTISKAKGQPREPQVCTLPPSQEEMTKNQVSLSCAVKGFYPSDIAVEWESNGQPENNYKTTPPVLDSDGSFFLVSKLTVDKSRWQEGNVFSCSVMHEALHNHYTQKSLSLSLGK
chain 2: EIVLTQSPATLSLSPGERATLSCRASQSVSSYLAWYQQKPGQAPRLLIYDASNRATGIPARFSGSGSGTDFTLTISSLEPEDFAVYYCQQSSNWPRTFGQGTKVEIKGSTSGSGKPGSGEGSTKGQVQLVESGGGVVQPGRSLRLDCKASGITFSNSGMHWVRQAPGKGLEWVAVIWYDGSKRYYADSVKGRFTISRDNSKNTLFLQMNSLRAEDTAVYYCATNDDYWGQGTLVTVSSESKYGPPCPPCPAPEFLGGPSVFLFPPKPKDTLMISRTPEVTCVVVDVSQEDPEVQFNWYVDGVEVHNAKTKPREEQFNSTYRVVSVLTVLHQDWLNGKEYKCKVSNKGLPSSIEKTISKAKGQPREPQVYTLPPCQEEMTKNQVSLWCLVKGFYPSDIAVEWESNGQPENNYKTTPPVLDSDGSFFLYSKLTVDKSRWQEGNVFSCSVMHEALHNHYTQKSLSLSLGK
notes: Knob-into-hole heterodimer of two scFv-Fc chains

Columns and labels:
CD96-His = molecular target: T1, CD96-His; assay: BLI (Fortebio), CD96-His antigen immobilised
[1] = molecular target: T2, CD96 (on 293T-CD96 cells and on T cells) (human); assay: flow cytometry on T cells at day 11 (CD96 expression 96.05%), FITC anti-IgG detection
[2] = molecular target: T2, CD96 (on 293T-CD96 cells and on T cells) (human); assay: flow cytometry on 293T-CD96 cells, 1.25 μg antibody, FITC anti-IgG detection
[3] = molecular target: T3, PD1 (on CHO-PD1 cells and on T cells) (human, UniProt Q15116 25-288); assay: flow cytometry on CHO-PD1 cells
T3 construct: whole, on cells; also called PD1抗原分子
T3 sequence (Q15116 25-288): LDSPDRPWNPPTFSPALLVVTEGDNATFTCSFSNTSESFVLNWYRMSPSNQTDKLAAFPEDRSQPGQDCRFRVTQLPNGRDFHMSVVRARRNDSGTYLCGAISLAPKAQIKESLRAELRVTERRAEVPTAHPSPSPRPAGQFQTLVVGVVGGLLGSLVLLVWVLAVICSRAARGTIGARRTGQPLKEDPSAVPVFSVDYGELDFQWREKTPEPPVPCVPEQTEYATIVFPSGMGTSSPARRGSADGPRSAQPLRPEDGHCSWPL

| Binder | Kd (CD96-His) | FITC-IgG的表达 (percent positive cells) [1] | FITC-IgG的表达率 (percent positive cells) [2] | binding result [3] |
| --- | --- | --- | --- | --- |
| B1 | 30.8 nM | 96.1% | 86.7% |  |
| B2 |  |  |  | binds |
